From IntAct's records for PubMed 20861839

B1: RNA polymerase II subunit A C-terminal domain phosphatase SSU72 (Homo sapiens), Q9NP77-1 (parent)
chain: MPSSPLRVAVVCSSNQNRSMEAHNILSKRGFSVRSFGTGTHVKLPGPAPDKPNVYDFKTTYDQMYNDLLRKDKELYTQNGILHMLDRNKRIKPRPERFQNCKDLFDLILTCEERVYDQVVEDLNSREQETCQPVHVVNVDIQDNHEEATLGAFLICELCQCIQHTEDMENEIDELLQEFEEKSGRTFLHTVCFY
partner: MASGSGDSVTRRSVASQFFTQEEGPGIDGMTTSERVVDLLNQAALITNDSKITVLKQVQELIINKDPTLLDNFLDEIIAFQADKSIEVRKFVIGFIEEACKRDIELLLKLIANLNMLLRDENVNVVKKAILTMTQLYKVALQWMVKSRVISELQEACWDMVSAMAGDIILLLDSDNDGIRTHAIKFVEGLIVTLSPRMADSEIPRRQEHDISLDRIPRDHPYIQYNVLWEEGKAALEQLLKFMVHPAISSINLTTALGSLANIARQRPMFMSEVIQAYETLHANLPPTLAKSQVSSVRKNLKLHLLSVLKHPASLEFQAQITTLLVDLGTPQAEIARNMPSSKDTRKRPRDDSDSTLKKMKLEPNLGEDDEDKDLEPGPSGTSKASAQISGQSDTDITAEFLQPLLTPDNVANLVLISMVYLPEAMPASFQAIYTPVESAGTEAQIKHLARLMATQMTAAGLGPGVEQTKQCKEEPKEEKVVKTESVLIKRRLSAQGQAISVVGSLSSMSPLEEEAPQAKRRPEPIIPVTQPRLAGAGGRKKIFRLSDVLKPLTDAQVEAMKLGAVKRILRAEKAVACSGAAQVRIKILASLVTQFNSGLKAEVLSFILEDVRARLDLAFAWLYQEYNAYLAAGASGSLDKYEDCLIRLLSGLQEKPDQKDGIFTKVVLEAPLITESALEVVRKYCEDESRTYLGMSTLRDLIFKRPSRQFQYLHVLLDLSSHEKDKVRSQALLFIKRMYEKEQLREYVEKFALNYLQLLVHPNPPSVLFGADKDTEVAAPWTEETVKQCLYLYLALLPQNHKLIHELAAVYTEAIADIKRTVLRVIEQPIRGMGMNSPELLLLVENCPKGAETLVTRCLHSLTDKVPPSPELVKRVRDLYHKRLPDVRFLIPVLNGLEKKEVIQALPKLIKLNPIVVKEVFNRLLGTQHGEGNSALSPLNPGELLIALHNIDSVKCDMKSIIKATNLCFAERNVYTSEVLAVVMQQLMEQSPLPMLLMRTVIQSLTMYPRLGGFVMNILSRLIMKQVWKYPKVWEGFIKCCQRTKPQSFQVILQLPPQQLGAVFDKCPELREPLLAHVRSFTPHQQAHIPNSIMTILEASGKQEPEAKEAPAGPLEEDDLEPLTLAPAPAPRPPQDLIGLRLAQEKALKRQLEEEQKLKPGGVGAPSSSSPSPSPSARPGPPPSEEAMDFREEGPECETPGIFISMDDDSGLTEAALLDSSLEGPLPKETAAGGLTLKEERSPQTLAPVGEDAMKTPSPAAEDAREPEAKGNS
B2: Symplekin (Homo sapiens), Q92797 (parent)
chain: B1 partner

Variants of: B1
Conditions: with sympk_human SYMPK

Variant	effect of a mutation on the interaction
MPSSPLRVAVVCSSNQNRSMEAHNILSKRGFSVRSFGTGTHVKLPGPAPDKPNVYDFKTTYDQMYNDLLRKDKELYTQNGILHMLDRNKRIKPRPERFQNCKDLFDLILTCEERVYDQVVEDLNSREQETCQPVHVVNVDIQDNHEEATLGAFLICELCQCIQHTEDMENEIDELLQEFEEKSGRTFLHAACAY	disrupting interaction

Variants of: B2
Conditions: with SSU72, Q9NP77-1

Variant	effect of a mutation on the interaction
K185A	disrupting interaction
